# In patent US20240343820A1 (KITE PHARMA, published 2024):
# Residue numbers refer to the chain shown, from its start.
# T1: SLC20A1 (PIT1) receptor (UniProt Q8WUM9 1-679, limits assumed)
# T1 construct: whole, on cells; Endogenous on K562 cells (a human cell line)
# T1 sequence (looked up): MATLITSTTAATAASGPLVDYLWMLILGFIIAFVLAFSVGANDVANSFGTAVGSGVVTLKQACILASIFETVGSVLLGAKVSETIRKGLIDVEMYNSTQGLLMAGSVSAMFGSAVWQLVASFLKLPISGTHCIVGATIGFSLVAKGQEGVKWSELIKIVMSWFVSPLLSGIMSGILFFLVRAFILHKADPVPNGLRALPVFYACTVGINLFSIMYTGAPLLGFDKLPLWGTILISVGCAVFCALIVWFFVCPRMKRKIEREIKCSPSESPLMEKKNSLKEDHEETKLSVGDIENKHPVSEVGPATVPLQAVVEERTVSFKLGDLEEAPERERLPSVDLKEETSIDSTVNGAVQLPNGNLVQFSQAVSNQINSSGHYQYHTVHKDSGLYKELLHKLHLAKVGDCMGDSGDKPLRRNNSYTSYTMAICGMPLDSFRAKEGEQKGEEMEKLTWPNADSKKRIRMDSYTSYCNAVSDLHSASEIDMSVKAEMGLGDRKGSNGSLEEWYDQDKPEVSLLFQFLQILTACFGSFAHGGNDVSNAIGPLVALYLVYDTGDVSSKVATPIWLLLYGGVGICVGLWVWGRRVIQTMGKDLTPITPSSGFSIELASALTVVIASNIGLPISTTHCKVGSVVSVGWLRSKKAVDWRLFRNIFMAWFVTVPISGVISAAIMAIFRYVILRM
# B1: 40A3 (antibody, V domains shown)
# VH: DVQLQESGPDLVKPSQSLSLTCTVTDFSITSDYTWHWVRQFPGNKLEWMAYIHYSGGTNYNPSLRSRISITRDTSKNQFFLHMNSVTTEDTATYYCLYYGSRDAVDYWGQGTSVTVSS
# VL: QIVLTQSPAIMSASPGEKVTMTCSTSSSVTYMHWYQQKSGTSPKRWIYDTSKLASGVPARFSGSGSGTSYSLTISSMEAEDAATYYCQQWSSSPYTFGGGTKLEIK
# notes: Anti-GALV gp70; One id for the hybridoma supernatant and the recombinant murine IgG2a antibody; also called 40A3-HC / 36H3-LC
# B2: 35C11 (antibody, V domains shown)
# VH: QVQLQQSGPELVRPGVSVKISCKVSGYTFTDYTMHWVKQSHAKSLEWIGLISTYSGKTNYNQKLKDKATMTVDKSSSTAYMELARLTSEDSAIFYCARGGLRDAMDYWGQGTSVTVSS
# VL: DIVLTQSPASLAVSLGQGATISCRASESVDSYGNSFMHWYQQKPGQPPKLLIYRASNLESGIPARFSGSGSGTDFTLTINPVEADDVATYYCLQSNEDPRTFGGGTKLEIK
# notes: also called 35C11-HC / 35C11-LC
# B3: 8G8 (antibody, V domains shown)
# VH: QVQLQQPGAELVRPGSSVKLSCKASGYTFTNYWMDWVKQRPGQGLEWIGNIYPSDSETHYNQNFKDKATLTVDKSSSTAYMQLSSLTSEDSAVYYCARDYYWGQGTTLTVSS
# VL: QAVVTQESALTTSPGETVTLTCRSSTGAVTRSNYANWVQEKPDHLFTGLIGGTNNRALGVPARFSGSLIGDKAALTITGAQTEDEAIYFCALWYSNHLVFGGGTKLTVLQ
# notes: Anti-GALV gp70; One id for the hybridoma supernatant and the recombinant murine IgG2a antibody; also called 8G8-HC2 / 8G8-LC2
# B4: 9G11 (antibody, V domains shown)
# VH: B3 VH with N50H, N61I, N63K, S77N
# VL: B3 VL with R31T, L58P, N96S, H97Q
# notes: Anti-GALV gp70; One id for the hybridoma supernatant and the recombinant murine IgG2a antibody; also called 9G11-HC / 9G11-LC
# B5: 4F1 (antibody, V domains shown)
# VH: B3 VH with N31S, V37M, N50H, N63K, K67R, T78A, Y80F
# VL: B3 VL with R31T, L58P
# notes: Anti-GALV gp70; One id for the hybridoma supernatant and the recombinant murine IgG2a antibody; also called 4F1-HC / 4F1-LC1
# B6: 2D3 (antibody, V domains shown)
# VH: B3 VH with N63K, K65R, S75P
# VL: B3 VL with R31T, T82I
# notes: Anti-GALV gp70; One id for the hybridoma supernatant and the recombinant murine IgG2a antibody; also called 2D3-HC1 / 2D3-LC1
# B7: 9A1 (antibody, V domains shown)
# VH: B3 VH with K19R, N31S, N63K
# VL: B3 VL with L58P
# notes: Anti-GALV gp70; One id for the hybridoma supernatant and the recombinant murine IgG2a antibody; also called 9A1-HC3 / 9A1-LC1
# B8: 40A6 (antibody, V domains shown)
# VH: EVQLVESGGGLVKPGGSLKLSCAASGFTFSSYVLSWVRQIPEKRLEWVATINSGGSYTYYPDSVKGRFTISRDNAKNTLYLQMSSLRSEDTAIYYCARHLIYYDYDGYYFDTWGQGTSLTVSS
# VL: DVVMTQTPLSLPVSLGDQASISCRSSQTLVHSNGNIYLHWYLQKPGQSPKLLIYKVSNRFSGVPDRFSGSGSGTDFTLKISRVETEDLGIYFCSQTTHVPPTFGGGTKLEIK
# notes: Anti-GALV gp70; One id for the hybridoma supernatant and the recombinant murine IgG2a antibody; also called 40A6-HC / 40A6-LC
# B9: huIgG1 monoFc tagged GALV gp70 protein (residues 505-616) (Fc fusion)
# chain: not shown
# notes: Residues are numbered according to Uniprot P21415; also called gp70 (505-616); coiled-coil (CC) domain of GALV gp70
# B10: huIgG1 monoFc tagged GALV gp70 protein (residues 42-616) (Fc fusion)
# chain: TSLQNKNPHQPMTLTWQVLSQTGDVVWDTKAVQPPWTWWPTLKPDVCALAASLESWDIPGTDVSSSKRVRPPDSDYTAAYKQITWGAIGCSYPRARTRMASSTFYVCPRDGRTLSEARRCGGLESLYCKEWDCETTGTGYWLSKSSKDLITVKWDQNSEWTQKFQQCHQTGWCNPLKIDFTDKGKLSKDWITGKTWGLRFYVSGHPGVQFTIRLKITNMPAVAVGPDLVLVEQGPPRTSLALPPPLPPREAPPPSLPDSNSTALATSAQTPTVRKTIVTLNTPPPTTGDRLFDLVQGAFLTLNATNPGATESCWLCLAMGPPYYEAIASSGEVAYSTDLDRCRWGTQGKLTLTEVSGHGLCIGKVPFTHQHLCNQTLSINSSGDHQYLLPSNHSWWACSTGLTPCLSTSVFNQTRDFCIQVQLIPRIYYYPEEVLLQAYDNSHPRTKREAVSLTLAVLLGLGITAGIGTGSTALIKGPIDLQQGLTSLQIAIDADLRALQDSVSKLEDSLTSLSEVVLQNRRGLDLLFLKEGGLCAALKEECCFYIDHSGAVRDSMKKLKEKLDKRQLERQKSQN
# notes: Residues are numbered according to Uniprot P21415; also called gp70 (42-616); RBD+CC domains
# B11: huIgG1 monoFc tagged GALV gp70 protein (residues 42-474) (Fc fusion)
# chain: TSLQNKNPHQPMTLTWQVLSQTGDVVWDTKAVQPPWTWWPTLKPDVCALAASLESWDIPGTDVSSSKRVRPPDSDYTAAYKQITWGAIGCSYPRARTRMASSTFYVCPRDGRTLSEARRCGGLESLYCKEWDCETTGTGYWLSKSSKDLITVKWDQNSEWTQKFQQCHQTGWCNPLKIDFTDKGKLSKDWITGKTWGLRFYVSGHPGVQFTIRLKITNMPAVAVGPDLVLVEQGPPRTSLALPPPLPPREAPPPSLPDSNSTALATSAQTPTVRKTIVTLNTPPPTTGDRLFDLVQGAFLTLNATNPGATESCWLCLAMGPPYYEAIASSGEVAYSTDLDRCRWGTQGKLTLTEVSGHGLCIGKVPFTHQHLCNQTLSINSSGDHQYLLPSNHSWWACSTGLTPCLSTSVFNQTRDFCIQVQLIPRIYYYPEE
# notes: also called gp70 (42-474)
# Biological target: B11
# Assay: BLI Octet Red96; antibody on AMC biosensor, 100 nM monoFc-gp70(42-474) analyte
Binder,Kd,koff,kon
B1,0.00524 nM,6e-07 s⁻¹,114000 M⁻¹ s⁻¹
B2,0.0122 nM,6.29e-07 s⁻¹,51500 M⁻¹ s⁻¹
B3,0.193 nM,6.31e-05 s⁻¹,328000 M⁻¹ s⁻¹
B4,0.704 nM,0.000257 s⁻¹,366000 M⁻¹ s⁻¹
B5,1.69 nM,0.000607 s⁻¹,359000 M⁻¹ s⁻¹
B6,1.71 nM,0.00048 s⁻¹,281000 M⁻¹ s⁻¹
B7,1.4 nM,0.000447 s⁻¹,318000 M⁻¹ s⁻¹
B8,0.0175 nM,6.72e-07 s⁻¹,38300 M⁻¹ s⁻¹

# Biological target: B9
# Assay: indirect ELISA, hybridoma supernatant on coated monoFc-tagged gp70 (505-616)
row,Binder,binding result
1,B1,no binding
2,B4,no binding
3,B5,no binding

# Biological target: T1, SLC20A1 (PIT1) receptor
# Assay: flow cytometry, monoFc-tagged gp70 (505-616) on K562 cells (endogenous SLC20A1), PE anti-human Fc secondary
row,Binder,binding result
1,B9,no binding (tested: 10.00 ug/100ul)

# Biological target: T1, SLC20A1 (PIT1) receptor
# Assay: flow cytometry, monoFc-tagged gp70 protein on K562 cells (endogenous SLC20A1), PE anti-human Fc secondary; CHO as negative cells
row,Binder,binding result
1,B10,binds
2,B11,binds
